In US20230192818A1:

Biological target: biotinylated SARS-CoV-2 S1 variant B.1.351 (Example 5) (SARS-CoV-2) (UniProt P0DTC2)
Assay: phage ELISA screening

Binder	ELISA
11-3 (antibody, V domains shown) VH: QVQLVESGGGVVQPGRSLRLSCAASGFTFSNFAMHWVRQAPGKGLEWVAVISYDGNHEYYADSVKGRFTISRDNSKNTLYLQMNSLRAEDTAVYYCAKTNSGSYGGMFDYWGQGTLVTVSS VL: EIVLTQSPATLSLSPGERATLSCRASQNIGNHLAWYQQKPGQAPRLLIYDASNRATGIPARFSGSGSGTDFTLTISSLEPEDFAVYYCQQRDNGPPEGTFGGGTKVEIK	17.3
12-7 (antibody, V domains shown) VH: QVQLVESGGGVVQPGRSLRLSCAASGFTFSIYAMHWVRQAPGKGLEWVAVISYDGTNEYYADSVKGRFTISRDNSKNTLYLQMNSLRAEDTAVYYCAKSRGGSYYGAFDYWGQGTLVTVSS VL: EIVLTQSPATLSLSPGERATLSCRASQSLGNYLAWYQQKPGQAPRLLIYDSSNRATGIPARFSGSGSGTDFTLTISSLEPEDFAVYYCQQRTDWPPSFGGGTKVEIK	22.2
12-9 (antibody, V domains shown) VH: QVQLVESGGGVVQPGRSLRLSCAASGFTFSSYGMHWVRQAPGKGLEWVAVISYDGTTEYYADSVKGRFTISRDNSKNTLYLQMNSLRAEDTAVYYCARPSSGSYLGFFDYWGQGTLVTVSS VL: EIVLTQSPATLSLSPGERATLSCRASQSVSTSLAWYQQKPGQAPRLLIYDATNRATGIPARFSGSGSGTDFTLTISSLEPEDFAVYYCQRRTDWPPTFGGGTKVEIK	19.9
12-4 (antibody, V domains shown) VH: QVQLVESGGGVVQPGRSLRLSCAASGFTFSYYGMHWVRQAPGKGLEWVAVISYDGTNDYYADSVKGRFTISRDNSKNTLYLQMNSLRAEDTAVYYCAKPHSGSYRGYFDYWGQGTLVTVSS VL: EIVLTQSPATLSLSPGERATLSCRASQSVGSHLAWYQQKPGQAPRLLIYDASNRATGIPARFSGSGSGTDFTLTISSLEPEDFAVYYCQQISNWPLTFGGGTKVEIK	23.5
11-15 (antibody, V domains shown) VH: QVQLVESGGGVVQPGRSLRLSCAASGFIFSNYGMHWVRQAPGKGLEWVAVISYDGSDKYYADSVKGRFTISRDNSKNTLYLQMNSLRAEDTAVYYCARDDYMYGFEHWGQGTLVTVSS VL: EMVVPQSPPTVSLSPGERATLSCRASQSVGSYLAWYQQKPGQAPRLLIYDAVNRATGIPARFSGSGSGTDFTLTISSLEPEDFAVYYCQQRSDSITFGGGTKVEIK	4.97
11-4 (antibody, V domains shown) VH: QVQLVESGGGVVQPGRSLRLSCAASGFTFDNYAMHWVRQAPGKGLEWVAVISDDGRNKYYADSVKGRFTISRDNSKNTLYLQMNSLRAEDTAVYYCAKDNYYDSSGYYGGGMDVWGQGTLVTVSS VL: EIVLTQSPATLSLSPGERATLSCRASQSVGSYLAWYQQKPGQAPRLLIYDAVNRATGIPARFSGSGSGTDFTLTISSLEPEDFAVYYCQQRFTWPTTFGGGTKVEIK	16.3
11-16 (antibody, V domains shown) VH: QVQLVESGGGVVQPGRSLRLSCAASGFTFSDHYMHWVRQAPGKGLEWVAVISYDGSNEYYADSVKGRFTISRDNSKNTLYLQMNSLRAEDTAVYYCAKDLGPAGVDYWGQGTLVTVSS VL: EIVLTQSPATLSLSPGERATLSCRASQSLGRYLAWYQQKPGQAPRLLIYDSSNRATGIPARFSGSGSGTDFTLTISSLEPEDFAVYYCQQYGDWPETFGGGTKVEIK	4.65
12-11 (antibody, V domains shown) VH: QVQLVESGGGVVQPGRSLRLSCAASGFSFGGYGMHWVRQAPGKGLEWVAVISYDGSNEYYADSVKGRFTISRDNSKNTLYLQMNSLRAEDTAVYYCAKSYSGSYSSYFDYWGQGTLVTVSS VL: EIVLTQSPATLSLSPGERATLSCRASQSVGSYLAWYQQKPGQAPRLLIYDAVNRATGIPARFSGSGSGTDFTLTISSLEPEDFAVYYCQQRFTWPTTFGGGTKVEIK	18.8
11-6 (antibody, V domains shown) VH: QVQLVESGGGVVQPGRSLRLSCAASGFTFGTYAMHWVRQAPGKGLEWVAVVSTEGGTTYYADSVKGRFTISRDNSKNTLYLQMNSLRAEDTAVYYCAGEYYDSSGSSIDYWGQGTLVTVSS VL: EIVLTQSPATLSLSPGERATLSCRASQSVDSSLAWYQQKPGQAPRLLIYDASNRATGIPARFSGSGSGTDFTLTISSLEPEDFAVYYCQQQSNWPGTFGGGTKVEIK	12.6
12-2 (antibody, V domains shown) VH: QVQLVESGGGVVQPGRSLRLSCAASGFIFRSYAMHWVRQAPGKGLEWVAVISYDGSSKYYADSVKGRFTISRDNSKNTLYLQMNSLRAEDTAVYYCARPSSGSYFPPFDYWGQGTLVTVSS VL: EIVLTQSPATLSLSPGERATLSCRASQSVDSRLAWYQQKPGQAPRLLIYDTSNRATGIPARFSGSGSGTDFTLTISSLEPEDFAVYYCQQRSTWPPVFGGGTKVEIK	25.9
12-5 (antibody, V domains shown) VH: QVQLVESGGGVVQPGRSLRLSCAASGFTFSYYGMHWVRQAPGKGLEWVAVTSYDGSNKYYSDSVKGRFTISRDNSKNTLYLQMNSLRAEDTAVYYCARPKSGSYATYFDYWGQGTLVTVSS VL: EIVLTQSPATLSLSPGERATLSCRASQNVGQSLAWYQQKPGQAPRLLIYDASNRATGIPARFSGSGSGTDFTLTISSLEPEDFAVYYCQQRENWPPTFGGGTKVEIK	22.8
11-10 (antibody, V domains shown) VH: QVQLVESGGGVVQPGRSLRLSCAASGFIFNNYGMHWVRQAPGKGLEWVAVISYDGSNIYYADSVKGRFTISRDNSKNTLYLQMNSLRAEDTAVYYCARDYNDGIGSYTGAFDSWGQGTLVTVSS VL: EIVLTQSPATLSLSPGERATLSCRASQSVSTSLAWYQQKPGQAPRLLIYDATNRATGIPARFSGSGSGTDFTLTISSLEPEDFAVYYCQQHYSWPLTFGGGTKVEIK	7.06
11-20 (antibody, V domains shown) VH: QVQLVESGGGVVQPGRSLRLSCAASGFTFDDYAMHWVRQAPGKGLEWVAVISYDGSNKYYADSVKGRFTISRDNSKNTLYLQMNSLRAEDTAVYYCASPHSGSYWAAFDIWGQGTLVTVSS VL: EIVLTQSPATLSLSPGERATLSCRASQSVGSYLAWYQQKPGQAPRLLIYDAVNRATGIPARFSGSGSGTDFTLTISSLEPEDFAVYYCQQRSLWPFGGGTKVEIK	3.42
12-1 (antibody, V domains shown) VH: QVQLVESGGGVVQPGRSLRLSCAASGFTFSYYGMHWVRQAPGKGLEWVAVTSYDGSNKYYADSVKGRFTISRDNSKNTLYLQMNSLRAEDTAVYYCARPQGGSYFAAFDIWGQGTLVTVSS VL: EIVLTQSPATLSLSPGERATLSCRASQSVSSHLAWYQQKPGQAPRLLIYDVSNRATGIPARFSGSGSGTDFTLTISSLEPEDFAVYYCQQRDTFTFGGGTKVEIK	29.2
11-2 (antibody, V domains shown) VH: QVQLVESGGGVVQPGRSLRLSCAASGFTFGTYAMHWVRQAPGKGLEWVAVVSTEGGTTYYADSVKGRFTISRDNSKNTLYLQMNSLRAEDTAVYYCAGSYGAYFDYWGQGTLVTVSS VL: EIVLTQSPATLSLSPGERATLSCRASQSVNSYLAWYQQKPGQAPRLLIYDVSNRATGIPARFSGSGSGTDFTLTISSLEPEDFAVYYCQQFSNWPTFGGGTKVEIK	19.4
11-9 (antibody, V domains shown) VH: QVQLVESGGGVVQPGRSLRLSCAASGFTFGTYAMHWVRQAPGKGLEWVAVVSTEGGTTYYADSVKGRFTISRDNSKNTLYLQMNSLRAEDTAVYYCAGSYGAYFDYWGQGTLVTVSS VL: EIVLTQSPATLSLSPGERATLSCRASQSVSYYLAWYQQKPGQAPRLLIYDSSNRATGIPARFSGSGSGTDFTLTISSLEPEDFAVYYCQQRSNWQGNFGGGTKVEIK	9.14
12-6 (antibody, V domains shown) VH: QVQLVESGGGVVQPGRSLRLSCAASGFIFRNYAMHWVRQAPGKGLEWVAVISYDGSNKYYADSVKGRFTISRDNSKNTLYLQMNSLRAEDTAVYYCARPRGGSYHGAFDIWGQGTLVTVSS VL: EIVLTQSPATLSLSPGERATLSCRASQSLGNYLAWYQQKPGQAPRLLIYDSSNRATGIPARFSGSGSGTDFTLTISSLEPEDFAVYYCQQRNWPYTFGGGTKVEIK	22.4
11-11 (antibody, V domains shown) VH: QVQLVESGGGVVQPGRSLRLSCAASGFTFDNYAMHWVRQAPGKGLEWVAVISYDGSNKYYADSVKGRFTISRDNSKNTLYLQMNSLRAEDTAVYYCLREGILWDVWGQGTLVTVSS VL: EIVLTQSPATLSLSPGERATLSCRASHNINNFLAWYQQKPGQAPRLLIYDTSNRATGIPARFSGSGSGTDFTLTISSLEPEDFAVYYCQQGRNWPPSSFGGGTKVEIK	6.43
11-1 (antibody, V domains shown) VH: QVQLVESGGGVVQPGRSLRLSCAASGFTFGSYGMHWVRQAPGKGLEWVAVISYDGGDEYYADSVKGRFTISRDNSKNTLYLQMNSLRAEDTAVYYCARDISRYGYYGMDVWGQGTLVTVSS VL: EIVLTQSPATLSLSPGERATLSCRASQSLGSFLAWYQQKPGQAPRLLIYDASNRATGIPARFSGSGSGTDFTLTISSLEPEDFAVYYCQQRALWPRLTFGGGTKVEIK	21.7
12-8 (antibody, V domains shown) VH: QVQLVESGGGVVQPGRSLRLSCAASGFTFNNYVMHWVRQAPGKGLEWVAVISYDGTNDYYADSVKGRFTISRDNSKNTLYLQMNSLRAEDTAVYYCARGESGSYWGAFDYWGQGTLVTVSS VL: EIVLTQSPATLSLSPGERATLSCRASQNIGNHLAWYQQKPGQAPRLLIYDVSNRATGIPARFSGSGSGTDFTLTISSLEPEDFAVYYCQQRKSWPPFTFGGGTKVEIK	21.4
12-10 (antibody, V domains shown) VH: QVQLVESGGGVVQPGRSLRLSCAASGFIFRSYAMHWVRQAPGKGLEWVAVISYDGSIKYYADSVKGRFTISRDNSKNTLYLQMNSLRAEDTAVYYCARTRGGSYYGAFDYWGQGTLVTVSS VL: EIVLTQSPATLSLSPGERATLSCRASQSVNSDLAWYQQKPGQAPRLLIYDASNRATGIPARFSGSGSGTDFTLTISSLEPEDFAVYYCQQRTDWPPATFGGGTKVEIK	19.7
11-18 (antibody, V domains shown) VH: QVQLVESGGGVVQPGRSLRLSCAASGFTFGTYAMHWVRQAPGKGLEWVAVISYDGNNKYYADSVKGRFTISRDNSKNTLYLQMNSLRAEDTAVYYCAKTGSGSYYSWFDYWGQGTLVTVSS VL: EIVLTQSPATLSLSPGERATLSCRASQSLTSYLAWYQQKPGQAPRLLIYDASNRATGIPARFSGSGSGTDFTLTISSLEPEDFAVYYCQQRHYWPPITFGGGTKVEIK	3.7
